In patent publication US7754689B2, “Finger-1 peptide analogs of the TGF-β superfamily” (Wyeth LLC, priority 2006, dated 2010):
No end group written: not given here.

T1: BMP-12 (Homo sapiens, UniProt Q7Z4P5)
T1 sequence (Q7Z4P5 322-450): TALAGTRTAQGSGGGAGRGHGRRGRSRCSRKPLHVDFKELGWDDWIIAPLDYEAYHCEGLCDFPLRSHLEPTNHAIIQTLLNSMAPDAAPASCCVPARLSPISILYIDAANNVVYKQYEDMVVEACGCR

T2: BMP-12 (UniProt Q7Z4P5 322-450, limits assumed)
T2 construct: also called BMP12/GDF7
T2 sequence (looked up): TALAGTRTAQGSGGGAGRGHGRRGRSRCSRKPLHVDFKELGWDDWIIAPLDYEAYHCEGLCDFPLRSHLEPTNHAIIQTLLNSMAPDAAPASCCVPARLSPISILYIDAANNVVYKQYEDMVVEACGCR


How the values were obtained:
[1] = molecular target: T1, BMP-12; assay: Filter-plate binding and elution of BMP-12 on peptide-coupled affinity resins
Experimental: The coupled resins, plus an unconjugated resin for use as a control, were suspended in 16% ethanol, 150 mM NaCl, and 20 mM Tris buffer at pH 7.5 at a 25% v/v ratio (e.g., […]). A Tecan liquid-handling robot was employed to aliquot 200 μL of each slurry into one of eight rows of a 96 well polystyrene filter plate (0.45 μm hydrophilic filters, Whatman catalog number 770-1806). Spinning at 1200 g for 3 min removed the liquid phase, leaving 50 μL of wet resin on the filters. The resins were then equilibrated with the loading buffers listed in Table 6 (K is a coefficient characterizing the strength of protein binding to a particular resin in a particular buffer). […] The resins were loaded by transferring 150 μL from the load plate to the filter plate and then incubating 20 min on a shaking platform to facilitate binding. The filter plate was spun down and the filtrate collected in a 96 well UV plate. The protein concentration in the filtrate, or flow-through, was calculated as (A280-A320)/1.3. The filter plate was then washed with 150 μL of 100 mM acetic acid, followed by 150 μL of 4M guanidine-HCl and 50 mM sodium acetate at pH 4.0. The protein concentration was measured in the new filtrate as described above. […] However, for peptides 750 and 751, the binding was strong in 25 mM MES at pH 6 but weak in 50 mM acetic acid with 0.1 M NaCl at pH 3.0, which can allow an efficient binding-elution process without the need for chaotrops or organic reagents. Flow-through and acetic acid elution samples from column 4 of the plate (loaded with MES pH 6) were analyzed on a gel (FIG. 14).

[2] = molecular target: T2, BMP-12; assay: peptide resin, filter plate; load 6: 1M CHES pH 9.7
Experimental: (§1) The coupled resins, plus an unconjugated resin for use as a control, were suspended in 16% ethanol, 150 mM NaCl, and 20 mM Tris buffer at pH 7.5 at a 25% v/v ratio (e.g., 25% ethanol, 75% Tris buffer). A Tecan liquid-handling robot was employed to aliquot 200 μL of each slurry into one of eight rows of a 96 well polystyrene filter plate (0.45 μm hydrophilic filters, Whatman catalog number 770-1806). Spinning at 1200 g for 3 min removed the liquid phase, leaving 50 μL of wet resin on the filters. The resins were then equilibrated with the loading buffers listed in Table 6 (K is a coefficient characterizing the strength of protein binding to a particular resin in a particular buffer). […] The resins were loaded by transferring 150 μL from the load plate to the filter plate and then incubating 20 min on a shaking platform to facilitate binding. The filter plate was spun down and the filtrate collected in a 96 well UV plate. The protein concentration in the filtrate, or flow-through, was calculated as $(A280-A320)/1.3$. The filter plate was then washed with 150 μL of 100 mM acetic acid, followed by 150 μL of 4M guanidine-HCl and 50 mM sodium acetate at pH 4.0. The protein concentration was measured in the new filtrate as described above. […] Flow-through and acetic acid elution samples from column 4 of the plate (loaded with MES pH 6) were analyzed on a gel (FIG. 14).

[3] = molecular target: T2, BMP-12; assay: peptide resin, filter plate; load 4: 25 mM MES pH 6.0
Experimental: as §1

[4] = molecular target: T2, BMP-12; assay: peptide resin, filter plate; load 5: 25 mM HEPES pH 7.0
Experimental: as §1

[5] = molecular target: T2, BMP-12; assay: peptide resin, filter plate; load 3: 25 mM Na Acetate pH 5.0
Experimental: as §1

[6] = molecular target: T2, BMP-12; assay: peptide resin, filter plate; load 1: 50 mM Acetic Acid, 0.1 M NaCl, pH 2.9
Experimental: as §1

[7] = molecular target: T2, BMP-12; assay: peptide resin, filter plate; load 2: 50 mM Acetic Acid, 0.1 M NaCl, pH 4.0
Experimental: as §1

[8] = molecular target: T2, BMP-12; assay: peptide resin, filter plate; load 10: 50 mM Tris, 0.1 M NaCl, 40% MPD, pH 8.0
Experimental: as §1

[9] = molecular target: T2, BMP-12; assay: peptide resin, filter plate; load 12: 50 mM Tris, 0.1 M NaCl, 20% MPD, pH 8.0
Experimental: as §1

[10] = molecular target: T2, BMP-12; assay: peptide resin, filter plate; load 11: 50 mM Tris, 0.25 M NaCl, 30% MPD, pH 8.0
Experimental: as §1

[11] = loaded in condition 1: 50 mM Acetic Acid, 0.1 M NaCl, pH 2.9
[12] = loaded in condition 2: 50 mM Acetic Acid, 0.1 M NaCl, pH 4.0
[13] = loaded in condition 3: 25 mM Na Acetate pH 5.0
[14] = loaded in condition 4: 25 mM MES pH 6.0
[15] = loaded in condition 5: 25 mM HEPES pH 7.0
[16] = 50 mM acetic acid with 0.1 M NaCl at pH 3.0

| Molecule | Yield (BMP-12 recovered from resin) [1, 11] | Yield (BMP-12 recovered from resin) [1, 12] | Yield (BMP-12 recovered from resin) [1, 13] | Yield (BMP-12 recovered from resin) [1, 14] | Yield (BMP-12 recovered from resin) [1, 15] | binding of BMP12 by resin coupled to peptide ([1]; loading buffers 1-5) | Flow-through K [2] | Flow-through conc [2] | 100 mM HAc elution K [3] | 100 mM HAc elution conc [3] | 4M Gnd, 50 mM NaAc pH 4 Strip Conc [3] | Flow-through K [3] | Flow-through conc [3] | 100 mM HAc elution K [4] | 100 mM HAc elution conc [4] | 4M Gnd, 50 mM NaAc pH 4 Strip Conc [4] | Flow-through K [4] | Flow-through conc [4] | 100 mM HAc elution K [5] | 100 mM HAc elution conc [5] | also measured |
| --- | --- | --- | --- | --- | --- | --- | --- | --- | --- | --- | --- | --- | --- | --- | --- | --- | --- | --- | --- | --- | --- |
| Ac-LYV**SDVGWNDWIVK (Ac-LYVSDVGWNDWIVK; not fully specified (residue 3); printed as Ac-LYV**SDVGWNDWIVK) [Peptide 746] | 91% | 88% | 97% | 87% | 100% |  |  |  |  |  |  |  |  |  |  |  |  |  |  |  |  |
| Ac-RDLGWQDWIIAPEGYAAFYSDGEK [Peptide 748] | 85% | 84% | 89% | 87% | 87% | high affinity |  |  |  |  |  |  |  |  |  |  |  |  |  |  |  |
| Ac-LYVDFSDVGWNDWIVAPPGYHAFYSHGEK [Peptide 747] | 81% | 68% | 90% | 88% | 90% | high affinity |  |  |  |  |  |  |  |  |  |  |  |  |  |  |  |
| Ac-VAPPGYHAFYSHGEK [Peptide 745] | 100% | 103% | 105% | 116% | 103% |  |  |  |  |  |  |  |  |  |  |  |  |  |  |  |  |
| Ac-LYVDFSDVGWNDWIVAPPGYHAFYSHGEK [BMP2 Full peptide 747] |  |  |  |  |  |  | -1 | 0.659 mg/mL | 1 | 0.324 mg/mL | 0.065 mg/ml | 38 | 0.035 mg/mL | 1 | 0.255 mg/mL | 0.074 mg/ml | 11 | 0.103 mg/mL | 2 | 0.274 mg/mL | 4M Gnd, 50 mM NaAc pH 4 Strip Conc [5]: 0.111 mg/ml; Flow-through K [5]: 28; Flow-through conc [5]: 0.046 mg/mL; 100 mM HAc elution K [6]: 6; 100 mM HAc elution conc [6]: 0.123 mg/mL; 4M Gnd, 50 mM NaAc pH 4 Strip Conc [6]: 0.15 mg/ml; Flow-through K [6]: 10; Flow-through conc [6]: 0.114 mg/mL; 100 mM HAc elution K [7]: 6; 100 mM HAc elution conc [7]: 0.147 mg/mL; 4M Gnd, 50 mM NaAc pH 4 Strip Conc [7]: 0.15 mg/ml; Flow-through K [7]: 47; Flow-through conc [7]: 0.029 mg/mL; Flow-through K [8]: 0; Flow-through conc [8]: 0.482 mg/mL; Flow-through K [9]: 0; Flow-through conc [9]: 0.438 mg/mL; Flow-through K [10]: 0; Flow-through conc [10]: 0.45 mg/mL |
| Ac-ELGWDDWIIAPLDYEAYHSEGLK [BMP12 N-trun_1S peptide 749] |  |  |  |  |  |  | -1 | 0.653 mg/mL | 1 | 0.321 mg/mL | 0.079 mg/ml | 56 | 0.025 mg/mL | 1 | 0.28 mg/mL | 0.093 mg/ml | 9 | 0.116 mg/mL | 2 | 0.275 mg/mL | 4M Gnd, 50 mM NaAc pH 4 Strip Conc [5]: 0.126 mg/ml; Flow-through K [5]: 42; Flow-through conc [5]: 0.032 mg/mL; 100 mM HAc elution K [6]: 6; 100 mM HAc elution conc [6]: 0.098 mg/mL; 4M Gnd, 50 mM NaAc pH 4 Strip Conc [6]: 0.141 mg/ml; Flow-through K [6]: 5; Flow-through conc [6]: 0.175 mg/mL; 100 mM HAc elution K [7]: 4; 100 mM HAc elution conc [7]: 0.175 mg/mL; 4M Gnd, 50 mM NaAc pH 4 Strip Conc [7]: 0.196 mg/ml; Flow-through K [7]: 26; Flow-through conc [7]: 0.05 mg/mL; Flow-through K [8]: 0; Flow-through conc [8]: 0.434 mg/mL; Flow-through K [9]: 1; Flow-through conc [9]: 0.404 mg/mL; Flow-through K [10]: 0; Flow-through conc [10]: 0.416 mg/mL |
| Ac-RDLGWQDWIIAPEGYAAFYSDGEK [BMP5 peptide 748] |  |  |  |  |  |  | -1 | 0.626 mg/mL | 2 | 0.304 mg/mL | 0.091 mg/ml | 62 | 0.022 mg/mL | 2 | 0.257 mg/mL | 0.105 mg/ml | 23 | 0.055 mg/mL | 2 | 0.264 mg/mL | 4M Gnd, 50 mM NaAc pH 4 Strip Conc [5]: 0.14 mg/ml; Flow-through K [5]: 57; Flow-through conc [5]: 0.024 mg/mL; 100 mM HAc elution K [6]: 6; 100 mM HAc elution conc [6]: 0.123 mg/mL; 4M Gnd, 50 mM NaAc pH 4 Strip Conc [6]: 0.177 mg/ml; Flow-through K [6]: 11; Flow-through conc [6]: 0.106 mg/mL; 100 mM HAc elution K [7]: 6; 100 mM HAc elution conc [7]: 0.151 mg/mL; 4M Gnd, 50 mM NaAc pH 4 Strip Conc [7]: 0.229 mg/ml; Flow-through K [7]: 59; Flow-through conc [7]: 0.023 mg/mL; Flow-through K [8]: 1; Flow-through conc [8]: 0.407 mg/mL; Flow-through K [9]: 1; Flow-through conc [9]: 0.383 mg/mL; Flow-through K [10]: 1; Flow-through conc [10]: 0.375 mg/mL |

Second part, led by results:

| Yield (BMP-12 recovered from resin) [1, 11] | Yield (BMP-12 recovered from resin) [1, 12] | Yield (BMP-12 recovered from resin) [1, 13] | Yield (BMP-12 recovered from resin) [1, 14] | Yield (BMP-12 recovered from resin) [1, 15] | binding of BMP12 by resin coupled to peptide ([1]; loading buffers 1-5) | Flow-through K [2] | Flow-through conc [2] | 100 mM HAc elution K [3] | 100 mM HAc elution conc [3] | 4M Gnd, 50 mM NaAc pH 4 Strip Conc [3] | Flow-through K [3] | Flow-through conc [3] | 100 mM HAc elution K [4] | 100 mM HAc elution conc [4] | 4M Gnd, 50 mM NaAc pH 4 Strip Conc [4] | Flow-through K [4] | Flow-through conc [4] | 100 mM HAc elution K [5] | 100 mM HAc elution conc [5] | Molecule | also measured |
| --- | --- | --- | --- | --- | --- | --- | --- | --- | --- | --- | --- | --- | --- | --- | --- | --- | --- | --- | --- | --- | --- |
| 100% | 93% | 96% | 85% | 109% |  |  |  |  |  |  |  |  |  |  |  |  |  |  |  | Ac-SDVGWNDWIVAPPGYHAFYCHGEK [Peptide 750] | binding of BMP12 by resin coupled to peptide ([1]; 25 mM MES at pH 6): strong; binding of BMP12 by resin coupled to peptide [1, 16]: weak |
| 104% | 97% | 100% | 92% | 107% |  |  |  |  |  |  |  |  |  |  |  |  |  |  |  | Ac-SDVGWNDWIVAPPGYHAFYSHGEK [Peptide 751] | binding of BMP12 by resin coupled to peptide ([1]; 25 mM MES at pH 6): strong; binding of BMP12 by resin coupled to peptide [1, 16]: weak |
| 86% | 88% | 90% | 88% | 102% | high affinity |  |  |  |  |  |  |  |  |  |  |  |  |  |  | Ac-ELGWDDWIIAPLDYEAYHSEGLK [Peptide 749] |  |
